Laboratory results: patent US20250154231A1
Where two headings read alike, the source gives them in different places.

What was measured:
Assay in all cases: cell-based or functional assay
[1] = target: SARS-CoV-2 Omicron BA.1.1 spike (S) protein (SARS-CoV-2) (UniProt P0DTC2)
[2] = target: SARS-CoV-2 spike (S) protein, Omicron BA.4/5 (SARS-CoV-2) (UniProt P0DTC2)
[3] = target: SARS-CoV-2 Alpha spike (S) protein (SARS-CoV-2) (UniProt P0DTC2)
[4] = target: SARS-CoV-2 spike (S) protein, Victoria strain (SARS-CoV-2) (UniProt P0DTC2)
[5] = target: SARS-CoV-2 spike (S) protein, Omicron BA.3 (SARS-CoV-2) (UniProt P0DTC2)
[6] = target: SARS-CoV-2 spike (S) protein, Omicron BA.1.1 (SARS-CoV-2) (UniProt P0DTC2)
[7] = target: SARS-CoV-2 Gamma spike (S) protein (SARS-CoV-2) (UniProt P0DTC2)
[8] = target: SARS-CoV-2 Omicron BA.1 spike (S) protein of the live isolate (SARS-CoV-2) (UniProt P0DTC2)
[9] = target: SARS-CoV-2 Victoria spike (S) protein (SARS-CoV-2) (UniProt P0DTC2)
[10] = target: SARS-CoV-2 spike (S) protein, Omicron BA.4.6 (SARS-CoV-2) (UniProt P0DTC2)
[11] = target: SARS-CoV-2 spike (S) protein, Omicron BA.1 (SARS-CoV-2) (UniProt P0DTC2)
[12] = target: SARS-CoV-2 Beta spike (S) protein (SARS-CoV-2) (UniProt P0DTC2)
[13] = target: SARS-CoV-2 spike (S) protein, Omicron BA.2 (SARS-CoV-2) (UniProt P0DTC2)
[14] = target: SARS-CoV-2 Delta spike (S) protein (SARS-CoV-2) (UniProt P0DTC2)
[15] = target: SARS-CoV-2 Omicron BA.2 spike (S) protein (SARS-CoV-2) (UniProt P0DTC2)
[16] = target: SARS-CoV-2 spike (S) protein, Omicron BA.2.3.20 (SARS-CoV-2) (UniProt P0DTC2)
[17] = target: SARS-CoV-2 spike (S) protein, Omicron BA.4/5 (SARS-CoV-2) (UniProt P0DTC2); remark: listed apart in the source
[18] = target: SARS-CoV-2 spike (S) protein, Omicron BJ.1 (SARS-CoV-2) (UniProt P0DTC2)
[19] = target: SARS-CoV-2 spike (S) protein, Omicron BA.4.6 (SARS-CoV-2) (UniProt P0DTC2); remark: listed apart in the source
[20] = target: SARS-CoV-2 spike (S) protein, Omicron BA.2 (SARS-CoV-2) (UniProt P0DTC2); remark: listed apart in the source
[21] = target: SARS-CoV-2 spike (S) protein, Omicron BA.2.75 (SARS-CoV-2) (UniProt P0DTC2)
[22] = target: SARS-CoV-2 spike (S) protein, Omicron BA.2.75.2 (SARS-CoV-2) (UniProt P0DTC2)
[23] = target: SARS-CoV-2 spike (S) protein, Omicron BA.2.75 (SARS-CoV-2) (UniProt P0DTC2); remark: listed apart in the source
[24] = target: SARS-CoV-2 spike (S) protein, Victoria strain (SARS-CoV-2) (UniProt P0DTC2); remark: listed apart in the source

Row | Substance | IC50, pseudoviral neutralization [2] [µg/mL] | pseudovirus neutralisation IC50 [2] [µg/mL] | IC50, pseudoviral neutralization [4] [ng/mL] | pseudovirus neutralisation IC50 [4] [ng/mL] | IC50, pseudoviral neutralization [5] [µg/mL] | pseudovirus neutralisation IC50 [5] [µg/mL] | IC50, pseudoviral neutralization [6] [µg/mL] | pseudovirus neutralisation IC50 [6] [µg/mL] | IC50, pseudoviral neutralization [10] [µg/mL] | IC50, pseudoviral neutralization [11] [µg/mL] | pseudovirus neutralisation IC50 [11] [µg/mL] | IC50, pseudoviral neutralization [13] [µg/mL] | pseudovirus neutralisation IC50 [13] [µg/mL] | IC50, pseudoviral neutralization [16] [µg/mL] | IC50, pseudoviral neutralization [17] [µg/mL] | IC50, pseudoviral neutralization [18] [µg/mL] | IC50, pseudoviral neutralization [19] [µg/mL] | IC50, pseudoviral neutralization [20] [µg/mL] | IC50, pseudoviral neutralization [21] [µg/mL] | IC50, pseudoviral neutralization [22] [µg/mL] | further results
1 | ADG20 (antibody) | > 10 | > 10 | 3 | 3 | > 10 | > 10 | 0.253 | 0.253 | > 10 | 0.348 | 0.348 | > 10 | > 10 | > 10 | > 10 | > 10 | > 10 | > 10 | > 10 | > 10 | IC50, authentic virus neutralization [1]: 1.27 µg/mL; IC50, authentic virus neutralization [3]: 0.006 µg/mL; IC50, authentic virus neutralization [7]: 0.009 µg/mL; IC50, authentic virus neutralization [8]: 1.1 µg/mL; IC50, authentic virus neutralization [9]: 4 ng/mL; IC50, authentic virus neutralization [12]: 0.01 µg/mL; IC50, authentic virus neutralization [14]: 0.006 µg/mL; IC50, authentic virus neutralization [15]: > 10 µg/mL; pseudovirus neutralisation IC50 [23]: > 10 µg/mL
2 | AZD1061 (antibody) | 0.015 | 0.015 | 2 | 2 | 0.019 | 0.019 | > 10 | > 10 | > 10 | 0.308 | 0.308 | 0.008 | 0.008 | > 10 | 0.015 | > 10 | > 10 | 0.008 | 0.021 | > 10 | IC50, authentic virus neutralization [1]: > 10 µg/mL; IC50, authentic virus neutralization [3]: 0.012 µg/mL; IC50, authentic virus neutralization [7]: 0.007 µg/mL; IC50, authentic virus neutralization [8]: 3.49 µg/mL; IC50, authentic virus neutralization [9]: 13 ng/mL; IC50, authentic virus neutralization [12]: 0.014 µg/mL; IC50, authentic virus neutralization [14]: 0.038 µg/mL; IC50, authentic virus neutralization [15]: 0.028 µg/mL; IC50, pseudoviral neutralization [24]: 2 ng/mL; pseudovirus neutralisation IC50 [23]: 0.021 µg/mL
3 | Ly-CoV555 (antibody) | > 10 | > 10 | 2 | 2 | > 10 | > 10 | > 10 | > 10 | > 10 | > 10 | > 10 | > 10 | > 10 | > 10 | > 10 | > 10 | > 10 | > 10 | > 10 | > 10 | IC50, pseudoviral neutralization [24]: 2 ng/mL; pseudovirus neutralisation IC50 [23]: > 10 µg/mL
4 | REGN10933 (antibody) | > 10 | > 10 | 1 | 1 | > 10 | > 10 | > 10 | > 10 | > 10 | > 10 | > 10 | > 10 | > 10 | 8.62 | > 10 | > 10 | > 10 | > 10 | > 10 | > 10 | IC50, authentic virus neutralization [1]: > 10 µg/mL; IC50, authentic virus neutralization [3]: 0.014 µg/mL; IC50, authentic virus neutralization [7]: 6.18 µg/mL; IC50, authentic virus neutralization [8]: > 10 µg/mL; IC50, authentic virus neutralization [9]: 4 ng/mL; IC50, authentic virus neutralization [12]: 3.28 µg/mL; IC50, authentic virus neutralization [14]: 0.003 µg/mL; IC50, authentic virus neutralization [15]: > 10 µg/mL; IC50, pseudoviral neutralization [24]: 1 ng/mL; pseudovirus neutralisation IC50 [23]: > 10 µg/mL
5 | REGN10987 (antibody) | > 10 | > 10 | 2 | 2 | > 10 | > 10 | > 10 | > 10 | > 10 | > 10 | > 10 | 0.616 | 0.616 | > 10 | > 10 | > 10 | > 10 | 0.615 | > 10 | > 10 | IC50, authentic virus neutralization [1]: > 10 µg/mL; IC50, authentic virus neutralization [3]: 0.028 µg/mL; IC50, authentic virus neutralization [7]: 0.013 µg/mL; IC50, authentic virus neutralization [8]: > 10 µg/mL; IC50, authentic virus neutralization [9]: 32 ng/mL; IC50, authentic virus neutralization [12]: 0.007 µg/mL; IC50, authentic virus neutralization [14]: 0.017 µg/mL; IC50, authentic virus neutralization [15]: 1.85 µg/mL; IC50, pseudoviral neutralization [24]: 2 ng/mL; pseudovirus neutralisation IC50 [23]: > 10 µg/mL
